Non-standard residues stand in square brackets, D forms with d. No end group written: not given here. *: point of attachment. 5FAM = O=C1OC2(c3ccc(O)cc3Oc3cc(O)ccc32)c2ccc(C(=O)*)cc21; pT = C[C@@H](OP(=O)(O)O)[C@H](N)C(=O)O; Ahx = NCCCCCC(=O)O
How the values were obtained:
Fkh1 = Fkh1 (UniProt P40466); experiment: fluorescence anisotropy titration
Fkh1-6xHis = molecular target: T1, Fkh1-6xHis (Saccharomyces cerevisiae, UniProt P40466); experiment: Fluorescence anisotropy binding of Mph1-derived peptides to recombinant Fkh1-6xHis
T1 construct: C-terminally His-tagged full length Fkh1 protein was expressed from a pET28b expression vector in Rosetta E. coli; made in house; host or cells: Rosetta E. coli (pET28b)
T1 sequence (P40466 1-484): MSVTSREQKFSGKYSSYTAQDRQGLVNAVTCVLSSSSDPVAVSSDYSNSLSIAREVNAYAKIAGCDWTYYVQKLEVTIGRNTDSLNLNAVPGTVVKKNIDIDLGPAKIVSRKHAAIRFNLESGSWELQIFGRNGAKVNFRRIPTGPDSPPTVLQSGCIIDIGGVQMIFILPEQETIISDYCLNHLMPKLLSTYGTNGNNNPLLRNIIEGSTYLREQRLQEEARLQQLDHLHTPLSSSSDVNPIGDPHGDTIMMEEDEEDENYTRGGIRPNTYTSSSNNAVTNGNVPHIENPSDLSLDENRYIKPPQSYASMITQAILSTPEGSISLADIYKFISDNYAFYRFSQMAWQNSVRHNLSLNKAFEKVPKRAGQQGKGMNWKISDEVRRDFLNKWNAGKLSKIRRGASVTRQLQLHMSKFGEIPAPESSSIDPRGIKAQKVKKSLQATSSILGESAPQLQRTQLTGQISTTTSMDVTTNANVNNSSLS
Protocol: To this end, recombinant Fkh1-6xHis was purified from E. coli and its ability to bind an 18-residue peptide representing Mph1(772–789) was assessed by fluorescence anisotropy (Fig 6).
(B) Peptide binding assay of Fkh1-6xHis and Mph1-derived peptides using fluorescence anisotropy. Binding reactions contained the indicated concentration of purified His-tagged Fkh1 and 3 nM 5-carboxyfluorescein labeled Mph1-derived peptide (5cf-aha-[sequence]) with threonines phosphorylated or unmodified, as indicated.
Peptides (constant final concentration of 3 nM) were mixed with titrations of purified Fkh1-6xHis protein in binding buffer (50 mM HEPES pH 7.0, 200 mM KCl, 10% glycerol, 5 mM BME, 1 mM EDTA, 1 mM EGTA, 5 mM MgOAc, 0.02% NP-40, protease inhibitors (Calbiotech)). Polarization at each concentration was measured in triplicates in 384-well polystyrene black microplates (Thermo Fisher Scientific #262260) by a Biotek Synergy H4 multimode plate reader (light source: xenon flash, offset from top: 7 mm, sensitivity: 60%, excitation: 485/20 nm, emission: 528/20 nm, both parallel and perpendicular, normal read speed). Fraction bound (Fb) at each concentration was calculated based on the corresponding polarization values (P): Fbc = (Pc—Pmin) / (Pmax—Pmin), where Pmin is the polarization value of the no-protein control and Pmax is the polarization value of the saturation value for that peptide. […]

Recombinant Fkh1-6xHis = molecular target: T2, Recombinant Fkh1-6xHis (S. cerevisiae, UniProt P40466 1-484); experiment: fluorescence polarisation; fluorescence anisotropy: 3 nM 5-carboxyfluorescein labeled peptide, titration of purified Fkh1-6xHis; 50 mM HEPES pH 7.0, 200 mM KCl, 10% glycerol, 5 mM BME, 1 mM EDTA, 1 mM EGTA, 5 mM MgOAc, 0.02% NP-40; Fb = [protein] / ([protein] + Kd); settings: both partners purified
T2 construct: Fkh1, S. cerevisiae, full length; also called His-tagged Fkh1; purified Fkh1; source: Rosetta E. coli (pET28b), purified (nickel chromatography); not shown: 6xHis, C-terminal, kept
T2 sequence (looked up): T1 sequence (P40466 1-484)

Mph1 772-789 (from UniProt P40562) pT785 peptide
binding against the reference (Fkh1; reference: unphosphorylated peptide, sites T785): stronger

CC(C)C[C@H](NC(=O)[C@H](CO)NC(=O)[C@H](CO)NC(=O)[C@H](CO)NC(=O)[C@H](C)NC(=O)[C@H](CCC(=O)O)NC(=O)[C@H](CCC(=O)O)NC(=O)[C@@H](NC(=O)[C@H](CO)NC(=O)[C@H](CC(=O)O)NC(=O)[C@H](CC(N)=O)NC(=O)[C@H](CCC(=O)O)NC(=O)CCCCCNC(=O)c1ccc2c(c1)C(=O)OC21c2ccc(O)cc2Oc2cc(O)ccc21)[C@@H](C)OP(=O)(O)O)C(=O)N[C@@H](CCC(=O)O)C(=O)N[C@H](C(=O)N[C@@H](CCC(=O)O)C(=O)N[C@@H](CC(=O)O)C(=O)N[C@@H](CCC(=O)O)C(=O)N[C@@H](CCC(=O)O)C(=O)O)[C@@H](C)OP(=O)(O)O [pT776 pT785]
binding to purified Fkh1, result in words (Fkh1-6xHis; 3 nM labeled peptide, pH 7.0): bound purified Fkh1 efficiently

Mph1 772-789 (from UniProt P40562) pT776 pT785 peptide
binding against the reference (Fkh1; reference: pT776 peptide, sites T785): stronger | binding against the reference (Fkh1; reference: pT785 peptide, sites T776): stronger

Mph1 772-789 (from UniProt P40562) pT776 peptide
binding against the reference (Fkh1; reference: unphosphorylated peptide, sites T776): stronger

CC(C)C[C@H](NC(=O)[C@H](CO)NC(=O)[C@H](CO)NC(=O)[C@H](CO)NC(=O)[C@H](C)NC(=O)[C@H](CCC(=O)O)NC(=O)[C@H](CCC(=O)O)NC(=O)[C@@H](NC(=O)[C@H](CO)NC(=O)[C@H](CC(=O)O)NC(=O)[C@H](CC(N)=O)NC(=O)[C@H](CCC(=O)O)NC(=O)CCCCCNC(=O)c1ccc2c(c1)C(=O)OC21c2ccc(O)cc2Oc2cc(O)ccc21)[C@@H](C)O)C(=O)N[C@@H](CCC(=O)O)C(=O)N[C@H](C(=O)N[C@@H](CCC(=O)O)C(=O)N[C@@H](CC(=O)O)C(=O)N[C@@H](CCC(=O)O)C(=O)N[C@@H](CCC(=O)O)C(=O)O)[C@@H](C)O [Non-phosphorylated]
fold reduced affinity for Fkh1 (non-phosphorylated vs peptide phosphorylated on both T776 and T785) (Fkh1-6xHis; relative to peptide phosphorylated on both T776 and T785): > 100 -fold

B1: Mph1(772–789) peptide phosphorylated on both T776 and T785 (peptide)
peptide: {5FAM-Ahx}-ENDS[pT]EEASSSLE[pT]EDEE
notes: Mph1, S. cerevisiae, 18-residue peptide representing Mph1(772–789); source: synthetic peptide
Kd (Recombinant Fkh1-6xHis): 2.2 µM

B2: Mph1(772–789) peptide, non-phosphorylated (peptide)
peptide: {5FAM-Ahx}-ENDSTEEASSSLETEDEE
notes: as for B1
Kd (Recombinant Fkh1-6xHis): 271 µM

— article PMC4892509, “Binding of the Fkh1 Forkhead Associated Domain to a Phosphopeptide within the Mph1 DNA Helicase Regulates Mating-Type Switching in Budding Yeast” (PLoS Genetics, 2016)
